Results on 125 sequences are retold here after the supplement of paper PMC9112550, “Optimization of the antimicrobial peptide Bac7 by deep mutational scanning” (BMC Biology, 2022).

In this series the test system is Escherichia coli TOP10. The series is described as follows: shrunken log2 fold change of peptide-encoding DNA abundance (4.5 h post-induction vs induction); higher = less antimicrobial activity (less host growth inhibition). Particulars: time post-induction: 4.5 h; library: site-saturation at positions 5, 18, 19, 20.
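Also: peptides expressed intracellularly from a pBAD plasmid library in pooled LB shake-flask culture, induced with 0.3% L-arabinose, DNA abundance read by NGS, three biological replicates, DESeq2 with apeglm shrinkage.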

As to RRIRLRPPRLPRPRPRPMTRPRP, the “shrunken log2 fold change” value came out at 0.314. The figure for RRIRGRPPRLPRPRPRPMFKPRP is 0.0694. The figure for RRIRPRPPRLPRPRPRPIVLPRP is -0.772; for RRIRVRPPRLPRPRPRPITAPRP it is -0.272; for RRIRTRPPRLPRPRPRPRWYPRP it is -0.288.

Turning to RRIRGRPPRLPRPRPRPAMFPRP, the “shrunken log2 fold change” value is 0.455. The figure for RRIRRRPPRLPRPRPRPDKEPRP is 0.0257. Turning to RRIRKRPPRLPRPRPRPVQGPRP, the “shrunken log2 fold change” value is -0.0824. The figure for RRIRIRPPRLPRPRPRPRICPRP is -0.3. For the sequence RRIRARPPRLPRPRPRPWNMPRP, the “shrunken log2 fold change” value is -0.046. Consider RRIRNRPPRLPRPRPRPMMPPRP, for which the “shrunken log2 fold change” value is -0.0635. As to RRIRCRPPRLPRPRPRPMCRPRP, the “shrunken log2 fold change” value is -0.274. To RRIRGRPPRLPRPRPRPVDRPRP belongs 0.297. As to RRIRSRPPRLPRPRPRPNFDPRP, the “shrunken log2 fold change” value stood at 0.221.

RRIRSRPPRLPRPRPRPKFMPRP: the “shrunken log2 fold change” value was -0.0581. RRIRFRPPRLPRPRPRPWKFPRP: the “shrunken log2 fold change” value worked out at 0.0664. The figure for RRIRDRPPRLPRPRPRPLIMPRP is -0.0616; for RRIRTRPPRLPRPRPRPDLEPRP it is -0.00853. To RRIRMRPPRLPRPRPRPSPNPRP belongs 0.0416; to RRIRMRPPRLPRPRPRPLGLPRP, 0.717.

RRIRGRPPRLPRPRPRPYMTPRP: the “shrunken log2 fold change” value stood at 0.109. To RRIRKRPPRLPRPRPRPPKCPRP belongs 0.069; to RRIRFRPPRLPRPRPRPFRTPRP, -0.444.

RRIRTRPPRLPRPRPRPEKIPRP: the “shrunken log2 fold change” value was determined as 0.0436.

As to RRIRMRPPRLPRPRPRPVTEPRP, the “shrunken log2 fold change” value is -0.0547. To RRIRSRPPRLPRPRPRPDMHPRP belongs -0.118; to RRIRMRPPRLPRPRPRPCHPPRP, 0.00663; to RRIRDRPPRLPRPRPRPEADPRP, 1.93. For RRIRCRPPRLPRPRPRPSWAPRP, the “shrunken log2 fold change” value came out at 0.18. In the case of RRIRSRPPRLPRPRPRPGSCPRP, the “shrunken log2 fold change” value is 0.0634. For RRIRQRPPRLPRPRPRPYEAPRP, the “shrunken log2 fold change” value is -0.0514. To RRIRCRPPRLPRPRPRPFLGPRP belongs -0.305; to RRIRGRPPRLPRPRPRPDAEPRP, 3.37. Regarding RRIRCRPPRLPRPRPRPHDVPRP, the “shrunken log2 fold change” value is -0.314. Turning to RRIRWRPPRLPRPRPRPQEHPRP, the “shrunken log2 fold change” value was determined as 0.0218. The figure for RRIRGRPPRLPRPRPRPFPDPRP is 0.0778; for RRIRWRPPRLPRPRPRPKNCPRP it is -0.122. To RRIRARPPRLPRPRPRPQDCPRP belongs 0.0638; to RRIRNRPPRLPRPRPRPAGIPRP, -0.0145; to RRIRKRPPRLPRPRPRPSCLPRP, -0.307.

Take RRIRERPPRLPRPRPRPCIFPRP: the “shrunken log2 fold change” value is -0.749. The figure for RRIRDRPPRLPRPRPRPVLWPRP is 0.37; for RRIRTRPPRLPRPRPRPREKPRP it is -0.00088; for RRIRDRPPRLPRPRPRPTGVPRP it is -0.0117. The figure for RRIRQRPPRLPRPRPRPVHCPRP is -0.166; for RRIRGRPPRLPRPRPRPCDDPRP it is 1.24. To RRIRIRPPRLPRPRPRPWTVPRP belongs -0.15. With RRIRPRPPRLPRPRPRPEGSPRP, the “shrunken log2 fold change” value stood at 0.0654.

In the case of RRIRPRPPRLPRPRPRPLQDPRP, the “shrunken log2 fold change” value is 0.151. Regarding RRIRHRPPRLPRPRPRPPGMPRP, the “shrunken log2 fold change” value stood at 0.0769. The figure for RRIRPRPPRLPRPRPRPKVIPRP is -0.172; for RRIRLRPPRLPRPRPRPSWIPRP it is -0.131; for RRIRSRPPRLPRPRPRPLADPRP it is -0.0259. The figure for RRIRVRPPRLPRPRPRPKQHPRP is -0.301; for RRIRSRPPRLPRPRPRPFLAPRP it is -0.311; for RRIRTRPPRLPRPRPRPHEPPRP it is -0.197.

RRIRSRPPRLPRPRPRPNPGPRP: the “shrunken log2 fold change” value is -0.17. With RRIRHRPPRLPRPRPRPNFVPRP, the “shrunken log2 fold change” value is -0.0788. The figure for RRIRTRPPRLPRPRPRPWRIPRP is 0.025. The figure for RRIRCRPPRLPRPRPRPGQPPRP is 0.126.

For RRIRIRPPRLPRPRPRPGGNPRP, the “shrunken log2 fold change” value was -0.0373.

With RRIRMRPPRLPRPRPRPINTPRP, the “shrunken log2 fold change” value was -0.387. The figure for RRIRNRPPRLPRPRPRPSYLPRP is -0.959; for RRIRSRPPRLPRPRPRPKGPPRP it is -0.00375. The figure for RRIRMRPPRLPRPRPRPPWEPRP is 0.601; for RRIRLRPPRLPRPRPRPYVFPRP it is -0.515. To RRIRERPPRLPRPRPRPPKYPRP belongs -0.294; to RRIRKRPPRLPRPRPRPSGMPRP, 0.115.

In the case of RRIRQRPPRLPRPRPRPYYLPRP, the “shrunken log2 fold change” value is -0.253. As for RRIRGRPPRLPRPRPRPLMLPRP, the “shrunken log2 fold change” value amounted to 0.462. The figure for RRIRYRPPRLPRPRPRPNWHPRP is -0.575; for RRIRGRPPRLPRPRPRPHTTPRP it is 0.333. To RRIRQRPPRLPRPRPRPAQRPRP belongs 0.302. To RRIRDRPPRLPRPRPRPCKIPRP belongs -0.0385; to RRIRKRPPRLPRPRPRPARSPRP, 0.89. Turning to RRIRHRPPRLPRPRPRPWVFPRP, the “shrunken log2 fold change” value amounted to 0.139. To RRIRFRPPRLPRPRPRPCYLPRP belongs -0.891; to RRIRIRPPRLPRPRPRPQPFPRP, -0.264; to RRIRYRPPRLPRPRPRPWKQPRP, -0.0389.

Turning to RRIRFRPPRLPRPRPRPIPFPRP, the “shrunken log2 fold change” value is 2.3. As for RRIRSRPPRLPRPRPRPWCIPRP, the “shrunken log2 fold change” value was -0.0292.

Take RRIRMRPPRLPRPRPRPWDLPRP: the “shrunken log2 fold change” value was 0.36. As for RRIRRRPPRLPRPRPRPWNSPRP, the “shrunken log2 fold change” value turned out to be 0.0625.

As to RRIRRRPPRLPRPRPRPCLLPRP, the “shrunken log2 fold change” value was -0.335. The figure for RRIRTRPPRLPRPRPRPLREPRP is 0.318; for RRIRLRPPRLPRPRPRPLPNPRP it is 0.11; for RRIRGRPPRLPRPRPRPTRDPRP it is 0.965.

RRIRQRPPRLPRPRPRPKTEPRP: the “shrunken log2 fold change” value stood at 0.104. The figure for RRIRPRPPRLPRPRPRPSAMPRP is 0.0584; for RRIRVRPPRLPRPRPRPTKLPRP it is -0.121. As for RRIRYRPPRLPRPRPRPSSYPRP, the “shrunken log2 fold change” value was -0.955.

For the sequence RRIRGRPPRLPRPRPRPTLEPRP, the “shrunken log2 fold change” value was 1.22.

On to RRIRVRPPRLPRPRPRPYECPRP, for which the “shrunken log2 fold change” value was -1.34. In the case of RRIRRRPPRLPRPRPRPGWVPRP, the “shrunken log2 fold change” value was 0.359. Regarding RRIRWRPPRLPRPRPRPGYNPRP, the “shrunken log2 fold change” value is -0.0807. To RRIRERPPRLPRPRPRPPHHPRP belongs -0.123. The figure for RRIRARPPRLPRPRPRPRGSPRP is 0.708; for RRIRVRPPRLPRPRPRPDWLPRP it is -0.0563; for RRIRSRPPRLPRPRPRPMTCPRP it is 0.04. The figure for RRIRVRPPRLPRPRPRPGLYPRP is -0.384; for RRIRIRPPRLPRPRPRPCRLPRP it is -0.468. Take RRIRIRPPRLPRPRPRPMCCPRP: the “shrunken log2 fold change” value was -0.212. As for RRIRSRPPRLPRPRPRPHIGPRP, the “shrunken log2 fold change” value is -0.0154.

RRIRWRPPRLPRPRPRPDLAPRP: the “shrunken log2 fold change” value was 0.953. Consider RRIRMRPPRLPRPRPRPNMCPRP, for which the “shrunken log2 fold change” value was found to be 0.0492. To RRIRERPPRLPRPRPRPCYRPRP belongs -0.357; to RRIRIRPPRLPRPRPRPTPNPRP, -0.0265; to RRIRVRPPRLPRPRPRPKAHPRP, -0.00647. For the sequence RRIRMRPPRLPRPRPRPMEMPRP, the “shrunken log2 fold change” value amounted to 0.515.

Regarding RRIRTRPPRLPRPRPRPAIIPRP, the “shrunken log2 fold change” value was -0.233. The figure for RRIRLRPPRLPRPRPRPCPGPRP is -0.219; for RRIRSRPPRLPRPRPRPHPPPRP it is 0.436.

With RRIRTRPPRLPRPRPRPFALPRP, the “shrunken log2 fold change” value is -0.0597. To RRIRARPPRLPRPRPRPECQPRP belongs 0.333; to RRIRIRPPRLPRPRPRPKMHPRP, -0.299; to RRIRLRPPRLPRPRPRPVLPPRP, -0.0546. The figure for RRIRARPPRLPRPRPRPDYHPRP is -0.879; for RRIRIRPPRLPRPRPRPMQPPRP it is -0.0593; for RRIRARPPRLPRPRPRPAAHPRP it is 0.478. The figure for RRIRRRPPRLPRPRPRPPATPRP is 0.958. Consider RRIRWRPPRLPRPRPRPLQNPRP, for which the “shrunken log2 fold change” value is -0.11. To RRIRHRPPRLPRPRPRPMVVPRP belongs 0.00198; to RRIRLRPPRLPRPRPRPAWGPRP, 0.444. With RRIRDRPPRLPRPRPRPAHHPRP, the “shrunken log2 fold change” value is 0.113. The figure for RRIRTRPPRLPRPRPRPFPMPRP is -0.596.
